{"source": "paper PMC4635569", "about": "(2015)", "biological_target": "human C3d (human, UniProt P01024 1002-1303)", "sequence (P01024 1002-1303)": "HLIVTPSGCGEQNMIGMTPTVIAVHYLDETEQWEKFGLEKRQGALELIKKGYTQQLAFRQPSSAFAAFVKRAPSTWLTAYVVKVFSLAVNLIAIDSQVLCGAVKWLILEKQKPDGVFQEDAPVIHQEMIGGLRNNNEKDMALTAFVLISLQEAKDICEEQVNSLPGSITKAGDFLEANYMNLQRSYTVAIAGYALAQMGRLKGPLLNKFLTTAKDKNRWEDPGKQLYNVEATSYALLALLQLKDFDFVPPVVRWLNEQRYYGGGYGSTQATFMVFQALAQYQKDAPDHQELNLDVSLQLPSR", "assay": "SPR", "data": [{"binder": "(D39)PspCN:FH complex (plasma-derived FH) (complex) chain 1: EDCNELPPRRNTEILTGSWSDQTYPEGTQAIYKCRPGYRSLGNVIMVCRKGEWVALNPLRKCQKRPCGHPGDTPFGTFTLTGGNVFEYGVKAVYTCNEGYQLLGEINYRECDTDGWTNDIPICEVVKCLPVTAPENGKIVSSAMEPDREYHFGQAVRFVCNSGYKIEGDEEMHCSDDGFWSKEKPKCVEISCKSPDVINGSPISQKIIYKENERFQYKCNMGYEYSERGDAVCTESGWRPLPSCEEKSCDNPYIPNGDYSPLRIKHRTGDEITYQCRNGFYPATRGNTAKCTSTGWIPAPRCTLKPCDYPDIKHGGLYHENMRRPYFPVAVGKYYSYYCDEHFETPSGSYWDHIHCTQDGWSPAVPCLRKCYFPYLENGYNQNYGRKFVQGKSIDVACHPGYALPKAQTTVTCMENGWSPTPRCIRVKTCSKSSIDIENGFISESQYTYALKEKAKYQCKLGYVTADGETSGSITCGKDGWSAQPTCIKSCDIPVFMNARTKNDFTWFKLNDTLDYECHDGYESNTGSTTGSIVCGYNGWSDLPICYERECELPKIDVHLVPDRKKDQYKVGEVLKFSCKPGFTIVGPNSVQCYHFGLSPDLPICKEQVQSCGPPPELLNGNVKEKTKEEYGHSEVVEYYCNPRFLMKGPNKIQCVDGEWTTLPVCIVEESTCGDIPELEHGWAQLSSPPYYYGDSVEFNCSESFTMIGHRSITCIHGVWTQLPQCVAIDKLKKCKSSNLIILEEHLKNKKEFDHNSNIRYRCRGKEGWIHTVCINGRWDPEVNCSMAQIQLCPPPPQIPNSHNMTTTLNYRDGEKVSVLCQENYLIQEGEEITCKDGRWQSIPLCVEKIPCSQPPQIEHGTINSSRSSQESYAHGTKLSYTCEGGFRISEENETTCYMGKWSSPPQCEGLPCKSPPEISHGVVAHMSDSYQYGEEVTYKCFEGFGIDGPAIAKCLGEKWSHPPSCIKTDCLSLPSFENAIPMGEKKDVYKAGEQVTYTCATYYKMDGASNVTCINSRWTGRPTCRDTSCVNPPTVQNAYIVSRQMSKYPSGERVRYQCRSPYEMFGDEEVMCLNGNWTEPPQCKDSTGKCGPPPPIDNGDITSFPLSVYAPASSVEYQCQNLYQLEGNKRITCRNGQWSEPPKCLHPCVISREIMENYNIALRWTAKQKLYSRTGESVEFVCKRGYRLSSRSHTLRTTCWDGKLEYPTCAKR chain 2: ATENEGSTQAATSSNMAKTEHRKAAKQVVDEYIEKMLREIQLDRRKHTQNVALNIKLSAIKTKYLRELNVLEEKSKDELPSEIKAKLDAAFEKFKKDTLKPGEK", "values": [{"measurement": "Kd", "result": 2, "unit": "µM"}]}]}
